In patent US20200289575A1 (NSAGE, published 2020):

Molecular target: AGE-albumin (advanced glycation end-product albumin), Sigma-Aldrich
Assay: cell-based or functional assay

B1: sRAGE (soluble Receptor for Advanced Glycation End-products), cat. RD172116100, Biovendor (receptor)
chain: MRGSHHHHHHGMASAQNITARIGEPLVLKCKGAPKKPPQRLEWKLNTGRTEAWKVLSPQGGGPWDSVARVLPNGSLFLPAVGIQDEGIFRCQAMNRNGKETKSNYRVRVYQIPGKPEIVDSASELTAGVPNKVGTCVSEGSYPAGTLSWHLDGKPLVPNEKGVSVKEQTRRHPETGLFTLQSELMVTPARGGDPRPTFSCSFSPGLPRHRALRTAPIQPRVWEPVPLEEVQLVVEPEGGAVAPGGTVTLTCEVPAQPSPQIHWMKDGVPLPLPPSPVLILPEIGPQDQGTYSCVATHSSHGPQESRAVSISIIEPGEEGPTAGEGFDKVREAEDSPQHM
Question: B1 was tested. Which “cell viability of HT22 cells by MTT assay (percent relative to control)” value did it give?
Answer: Its value is 101%.
